Experimental data taken from patent publication US20160131655A1.

Biological target: BCMA (B cell maturation antigen) protein on the cell surface of human multiple myeloma cells (human) (UniProt Q02223)
Assay: FACS on OPM-2 cells, Alexa488-labeled antibody

UniProt Q02223, sequence (Q02223 whole entry N81S): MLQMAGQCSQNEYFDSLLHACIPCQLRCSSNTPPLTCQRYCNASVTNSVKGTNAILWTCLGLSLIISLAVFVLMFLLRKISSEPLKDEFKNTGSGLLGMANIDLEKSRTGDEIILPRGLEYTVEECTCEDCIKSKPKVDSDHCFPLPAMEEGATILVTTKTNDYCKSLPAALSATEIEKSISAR

| Substance | Mean Fluorescence Signal |
| --- | --- |
| anti-BCMA antibody MAB193 (clone 335004, rat IgG2a, R&D Systems #MAB193) | 371 |
| anti-BCMA antibody Vicky-1 (rat IgG1, GeneTex #GTX17323) | 609 |
